# Assay results taken from IntAct's records for PubMed 23222540.
# Biological target: ogt1_human OGT (UniProt O15294)
# UniProt O15294, sequence (O15294 whole entry): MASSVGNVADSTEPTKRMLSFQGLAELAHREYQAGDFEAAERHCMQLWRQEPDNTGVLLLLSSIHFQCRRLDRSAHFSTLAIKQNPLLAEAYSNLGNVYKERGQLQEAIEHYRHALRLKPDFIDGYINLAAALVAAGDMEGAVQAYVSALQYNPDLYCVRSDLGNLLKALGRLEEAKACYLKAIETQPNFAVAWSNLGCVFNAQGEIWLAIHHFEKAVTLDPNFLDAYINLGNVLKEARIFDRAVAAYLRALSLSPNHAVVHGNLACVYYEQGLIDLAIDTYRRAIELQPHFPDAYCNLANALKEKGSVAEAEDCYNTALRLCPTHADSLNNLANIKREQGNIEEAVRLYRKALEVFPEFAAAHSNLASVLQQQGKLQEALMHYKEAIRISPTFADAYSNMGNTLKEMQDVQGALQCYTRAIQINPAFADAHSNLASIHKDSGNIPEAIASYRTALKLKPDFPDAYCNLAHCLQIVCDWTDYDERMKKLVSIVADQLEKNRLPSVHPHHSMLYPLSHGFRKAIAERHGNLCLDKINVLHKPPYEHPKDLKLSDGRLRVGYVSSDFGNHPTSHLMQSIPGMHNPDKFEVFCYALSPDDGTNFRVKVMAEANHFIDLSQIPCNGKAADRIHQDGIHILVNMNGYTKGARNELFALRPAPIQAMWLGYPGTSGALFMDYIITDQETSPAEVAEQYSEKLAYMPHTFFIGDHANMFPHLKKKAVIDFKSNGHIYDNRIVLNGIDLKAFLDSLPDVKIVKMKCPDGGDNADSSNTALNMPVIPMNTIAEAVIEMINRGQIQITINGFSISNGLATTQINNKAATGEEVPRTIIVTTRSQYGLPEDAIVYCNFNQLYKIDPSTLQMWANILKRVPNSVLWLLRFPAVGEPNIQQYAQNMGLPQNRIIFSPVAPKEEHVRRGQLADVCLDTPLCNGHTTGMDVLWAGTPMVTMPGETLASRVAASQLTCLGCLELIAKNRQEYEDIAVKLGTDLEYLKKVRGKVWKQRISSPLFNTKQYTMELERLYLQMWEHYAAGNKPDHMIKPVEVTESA
substance,measurement,value
"Methylcytosine dioxygenase TET2 (Homo sapiens), Q6N021-1 H1382Y;D1384A",effect of a mutation on the interaction,with no effect
